Read-outs that look alike come from different tables or passages of the source. Positions of bridges follow the written chain, without caps; N, C: chain ends. Non-standard residues stand in square brackets, D forms with d. Residues, ends and D or L forms follow the SMILES beside them. hArg = N=C(N)NCCCC[C@H](N)C(=O)O; Mpa = O=C(O)CCS
B1: adenosine deaminase (protein, UniProt P00813 2-363, looked up)
Adenosine deaminase: AQTPAFDKPKVELHVHLDGSIKPETILYYGRRRGIALPANTAEGLLNVIGMDKPLTLPDFLAKFDYYMPAIAGCREAIKRIAYEFVEMKAKEGVVYVEVRYSPHLLANSKVEPIPWNQAEGDLTPDEVVALVGQGLQEGERDFGVKARSILCCMRHQPNWSPKVVELCKKYQQQTVVAIDLAGDETIPGSSLLPGHVQAYQEAVKSGIHRTVHAGEVGSAEVVKEAVDILKTERLGHGYHTLEDQALYNRLRQENMHFEICPWSSYLTGAWKPDTEHAVIRLKNDQANYSLNTDDPLIFKSTLDTDYQMTKRDMGFTEEEFKRLNINAAKSSFLPEDEKRELLDLLYKAYGMPPSASAGQNL
notes: human recombinant adenosine deaminase, removes adenosine

Key:
[1] = test system: SPM production in human whole blood; test: SPM and eicosanoid production during coagulation with heparin, eptifibatide, ADA, celecoxib or BAI; type: cell-based
Protocol: FIG. 2 illustrates regulators of SPM formation in human blood. (A to E) Freshly drawn human peripheral blood (4 ml) containing heparin (10 U/ml) was placed in polypropylene tubes (A) whereas human peripheral blood without anticoagulant was placed in silicone-coated tubes (B to E) and incubated at 37° C. for the time course of 0 to 24 hours (see Example 1, Materials and Methods). The samples were then subjected to snap-freezing for extraction and LC-MS/MS analysis. (A) Concentrations of the members of the SPM cluster (identified in FIG. 1) in samples treated without (Coag.) or with heparin (10 U/ml) during the incubation period. Data are means±SEM of three individual donors. (B) Left: Combined concentrations of the total SPM cluster, prostaglandins, and thromboxanes after 24 hours of coagulation in the presence or absence of the αIIbβ3 inhibitor eptifibatide (Eptifib.; 20 μM). Middle: Clot volumes after 24 hours of coagulation of the indicated samples. Right: Representative clot images. Data are means±SEM of three individual donors. (C) Concentrations of total SPMs and of the indicated individual SPMs after 24 hours of coagulation in the presence or absence of 200 mU ADA. Data are means±SEM of three individual donors. *P<0.05, **P<0.01 by ratio t-test. (D) Top: LC-MS/MS measurements of adenosine concentrations in whole blood at the indicated time points during coagulation in the presence or absence of ADA. **P<0.01 when compared to the zero-hour time point. Bottom: Flow cytometric analysis of the percentage of neutrophil-platelet aggregates, which were defined as being double-positive for CD16 and CD42b, in whole blood allowed to coagulate for the indicated times in the absence (Coag.) or presence of ADA. Data are means±SEM of five individual donors. *P<0.05, **P <0.01 by student's t test. For dot plots and gating, see FIG. 7B. (E) MS/MS fragmentation profiles with diagnostic ions for the indicated SPMs identified in (C). (F) Left: PCA score plot. Red denotes +ADA for 1 hour; yellow, coagulation for 1 hour; green, coagulation for 24 hours; blue, +ADA for 24 hours. Right: PCA loading plot showing temporal clustering of the indicated mediators from three individual donors. Red denotes LM at 1 hour; blue denotes 24 hours with ADA).
FIG. 8 illustrates SPM formation in human blood clots being regulated by lipoxygenase activity. (A and B) Freshly drawn human peripheral blood (4 ml) was placed in silicone-coated tubes at 37° C. for 24 hours and coagulation was stopped by snap-freezing before LC-MS/MS analysis was performed. Concentrations of total SPMs, prostaglandins, and thromboxanes after 24 hours of coagulation (Coag.) in the presence or absence of (A) 100 μM indomethacin (Indo.) (n=six individual donors), (B) 500 nM celecoxib (CLX) or 20 μM BAI (n=three individual donors). […]

human blood clot = test: Clot volume after 24 hours of coagulation; type: cell-based; details: eptifibatide 20 μM, P<0.01
Protocol: (A to E) Freshly drawn human peripheral blood (4 ml) containing heparin (10 U/ml) was placed in polypropylene tubes (A) whereas human peripheral blood without anticoagulant was placed in silicone-coated tubes (B to E) and incubated at 37° C. for the time course of 0 to 24 hours (see Example 1, Materials and Methods). The samples were then subjected to snap-freezing for extraction and LC-MS/MS analysis. […] (B) Left: Combined concentrations of the total SPM cluster, prostaglandins, and thromboxanes after 24 hours of coagulation in the presence or absence of the αIIbβ3 inhibitor eptifibatide (Eptifib.; 20 μM). Middle: Clot volumes after 24 hours of coagulation of the indicated samples. Right: Representative clot images. Data are means±SEM of three individual donors.
Human whole blood was transferred in 4-ml aliquots to negatively charged, silicone-coated 10-ml tubes (BD) without anticoagulant. For experiments with heparin, the heparinized blood was placed in 15-ml polypropylene tubes before incubation at 37° C. For LM profiling at designated times, all samples were immediately subjected to a workup procedure by which whole blood was snap-frozen in a dry ice/isopropanol bath and were returned to room temperature (×3 cycles) before undergoing centrifugation at 100,000 g at 4° C.

[2] = Flow cytometric analysis of clots, cell viability (annexin V / PI); type: cell-based, human; details: human
Protocol: (§1) Human peripheral blood was collected from healthy individuals without anticoagulant and allowed to coagulate for 24 hours as described earlier. Clots were washed with phosphate-buffered saline (PBS) containing Ca2+ (0.9 mM) and Mg2+ (0.5 mM) and then gently homogenized and passed through a 70-micron filter. Clot-derived cells were stained for flow cytometric analysis. Cells were stained in FACS buffer (PBS with 1% BSA and 0.1% sodium azide). […] For viability assays, FITC-conjugated annexin V (BD) and propidium iodide (PI) were added to the cells according to the manufacturer's protocol. Samples were analyzed with a FACS Canto II flow cytometer (BD Bioscience) and FlowJo X Software.

[3] = test system: clot-derived leukocytes and lymphocytes; test: as above; type: cell-based, human
Protocol: as §1

[4] = ADA, P<0.01
Protocol: Human blood was subjected to the same freeze-thaw procedure as was used for the metabololipidomics. After centrifugation at 1000 g at 4° C. for 5 min, supernatants were reconstituted with 4 volumes of methanol and kept on ice for 30 min to facilitate protein precipitation. Samples were then subjected to centrifugation at 1000 g at 4° C. for 5 min. Supernatants were reconstituted to <1% methanol and then taken to LC-MS/MS for identification and quantitation of adenosine by matched retention time with ≥99%, pure adenosine (Sigma) through MRM transition 268>136 for the protonated adenine fragment (54).

[5] = test system: neutrophil-platelet aggregates; test: Neutrophil-platelet interactions by flow cytometry; type: cell-based, human; details: with ADA
Protocol: Whole blood was collected from healthy individuals without anticoagulant and allowed to coagulate for 1, 6, or 24 h with or without ADA. Clots were washed with PBS and then gently homogenized and passed through a 70 micron-filter. Clot derived neutrophil-platelet interactions were analyzed by flow cytometry with FITC-conjugated anti-human CD16 antibody (clone ebio CB16), and PE-conjugated anti-human CD42b (clone HIP1). Neutrophils were identified by their cell surface expression of CD16 and high side and forward scatter. Platelets were identified based on their low side and forward scatter on a log scale and on their cell surface expression of CD42b. Neutrophil and platelet aggregates were identified as CD14-cells that were double-positive for CD42b and CD16 as CD14-,CD42b+,CD16+,SSChigh,FSChigh.

[6] = 24 h coagulation, n = 3, mean +/- S.E.M.

Row | Molecule | reduction of the total amount of the SPM cluster ([1]; eptifibatide 20 μM, 24 hours of coagulation, P<0.01) [%] | increase in clot volume (human blood clot) [%] | viability at 24 h [2] [%] | Early apoptosis [3] [%] | Late apoptosis [3] [%] | Necrotic [3] [%] | cell viability (in words) [3] | total SPM production vs. coagulation alone ([1]; 200 mU ADA, 24 hours) | time by which adenosine was cleared during coagulation [4] [h] | Early apoptosis [3, 6] [%] | Late apoptosis [3, 6] [%] | Live [3, 6] [%] | Necrotic [3, 6] [%] | cell viability (in words) ([3]; during coagulation) | number of platelet-neutrophil aggregates during the time course of coagulation [5]
1 | N=C(N)NCCCC[C@@H]1NC(=O)CCSSC[C@@H](C(N)=O)NC(=O)[C@@H]2CCCN2C(=O)[C@H](Cc2c[nH]c3ccccc23)NC(=O)[C@H](CC(=O)O)NC(=O)CNC1=O [Eptifibatide, eptifibatide, reference compound] ([Mpa][hArg]GDWPC-NH2; disulfide 1-7) | ~50 | ~20 | 90.6 ± 1.3 | 5.1 ± 1.9 | 2.0 ± 0.5 | 0.9 ± 0.1 | without reducing cell viability |  |  |  |  |  |  |  | 
2 | B1 |  |  |  |  |  |  |  | more than 8 times | ≤ 1 | 9.9 ± 2.9 | 5.8 ± 1.4 | 81.5 ± 0.5 | 2.7 ± 2.0 | Cell viability was not decreased | statistically significantly increased
